Data as given in paper PMC11596305, “A strategy to design protein-based antagonists against type I cytokine receptors” (PLOS Biology, 2024).

Columns and labels:
Assay in all cases: SPR; steady-state fitting of TPOR binding; further details in S1 Methods (not shown)
Conditions in all cases: both partners purified
[1] = biological target: Thrombopoietin receptor (TPOR) (UniProt P40238 26-635)
buto_a3_t2 = biological target: buto_a3_t2
buto_a3 = biological target: buto_a3

Row | Kd [1] [µM] | Kd (buto_a3_t2) [µM] | Kd (buto_a3) [µM] | Binder
1 | 4.09 ± 1.84 | – | – | Thrombopoietin (TPO), bacterially expressed (ligand, expressed in E. coli, non-glycosylated; N-terminal His tag/thrombin site omitted / The construct is described only in S1 Methods. The extracellular domain after the signal peptide is assumed as the …) SPAPPACDLRVLSKLLRDSHVLHSRLSQCPEVHPLPTPVLLPAVDFSLGEWKTQMEETKAQDILGAVTLLLEGVMAARGQLGPTCLSSLLGQLSGQVRLLLGALQSLLGTQLPPQGRTTAHKDPNAIFLSFQHLLRGKVRFLMLVGGSTLCVRRAPPTTAVPS
2 | – | 0.88 ± 0.16 | 10.6 ± 1.49 | Thrombopoietin receptor (TPOR) (receptor, The construct is described only in S1 Methods. The extracellular domain after the signal peptide is assumed as the SPR receptor; glycosylation is possible.) QDVSLLASDSEPLKCFSRTFEDLTCFWDEEEAAPSGTYQLLYAYPREKPRACPLSSQSMPHFGTRYVCQFPDQEEVRLFFPLHLWVKNVFLNQTRTQRVLFVDSVGLPAPPSIIKAMGGSQPGELQISWEEPAPEISDFLRYELRYGPRDPKNSTGPTVIQLIATETCCPALQRPHSASALDQSPCAQPTMPWQDGPKQTSPSREASALTAEGGSCLISGLQPGNSYWLQLRSEPDGISLGGSWGSWSLPVTVDLPGDAVALGLQCFTLDLKNVTCQWQQQDHASSQGFFYHSRARCCPRDRYPIWENCEEEEKTNPGLQTPQFSRCHFKSRNDSIIHILVEVTTAPGTVHSYLGSPFWIHQAVRLPTPNLHWREISSGHLELEWQHPSSWAAQETCYQLRYTGEGHQDWKVLEPPLGARGGTLELRPRSRYRLQLRARLNGPTYQGPWSSWSDPTRVETATETAW
